Consider 1 substance from US5783421.

Experiment [1] has as its target Factor Xa.
The target in experiment [2] is Factor Xa. In words: inhibition of FXa in the prothrombinase complex assay (250 pM FXa, 2.67 µM prothrombin).
Experiment [3] concerns the target Factor Xa. In words: modified prothrombinase complex assay (50 pM FXa, 1.35 µM prothrombin).

In general, Ki refers to the dissociation constant of the complex between target and ligand, obtained from inhibition or displacement. A lower Ki goes with a stronger hold on the target. Consider “naturally occurring FXa inhibitor isolated from dilute leech saliva (DLS) of Hirudo medicinalis”, for which, in the experiment with Factor Xa [1], the IC50, generation of thrombin from prothrombin by FXa in a prothrombinase complex is 0.19 nM. In addition, the inhibitory constant (Ki) stood at 0.072 nM in the experiment with Factor Xa [2] and 0.12 nM with Factor Xa [3].
